{"source": "the nanobody polyreactivity screen of Harvey et al. (2022)"}
{"assay": "yeast display, Sf9 membrane polyspecificity reagent, FACS + sequencing; frameworks hold sequencing errors", "method_in_brief": "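Galactose induction of a Saccharomyces cerevisiae BJ5465 synthetic nanobody display library ran 36–48 hours. The cells were then stained for 1 hour at 4 °C with 10% biotinylated, detergent-solubilized Sf9 membrane reagent, pulled down on streptavidin microbeads and FACS-sorted into low and high (top ~1%) gates on expression and reagent-binding fluorescence. Labels for polyreactivity follow the gate of origin.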"}
{"sequence": "QVQLVESGGGLFQAGGSLRLSFAASGIIFPYNLMGWYRQAPGKERELVAAITRGAASTYYADSVKGRFTISRDHEKNTVYLQMNSLKPEDTAVYFCNADGTWRTYNFWGQGTQVTVSS", "polyreactivity (PSR sort gate)": "high polyreactivity"}
{"sequence": "QVQLVESGGGLFQAGGSLRLSSAASGFIFWTNVMGWYRQQPGKVRELVAGISKSGGSTYYADSVKGRFTISRDNAKNTVYLQMNCLKPEDTAVYYCAAPRPPAGRYGYWGQGTQVTVSS", "polyreactivity (PSR sort gate)": "high polyreactivity"}
{"sequence": "QVQLVESGGGLFQAGGSLRLSSAASGFTFWYYAMGWYRQAPGKERELVASISRTGGTTYYADSVKGRFKISRDIAKNTVYLQMNSLKPEDTAVYYCAARRQARRYWEGDYWCQGTQVTVSS", "polyreactivity (PSR sort gate)": "high polyreactivity"}
{"sequence": "QVQLVESGGGLFQAGGSLSLSCAASGFIFYTNAMGWYRQAPGKERELVATITTSGGRTYYADSVKGRFTISRDNAKNTVFLQMNSLKPEDTAVDYCATRYVVIEYDYWGQGTQVTVSS", "polyreactivity (PSR sort gate)": "low polyreactivity"}
{"sequence": "QVQLVESGGGLFQEGGSLRLSCAASGYTFKGNAMGWYRQAPGKDWELVAAISRSGASTYYADSVKGRFTISRDNAKNTVYLQMNSLKPEDTAVYYCAAEWYRGGEYRRYDYWGQGTQVTVSS", "polyreactivity (PSR sort gate)": "high polyreactivity"}
{"sequence": "QVQLVESGGGLFQPGGILRLSFAASGSTIIDYAMGWYRQEPWKERELVASITWSGGSTYYADSVKGRFTFSRDNAKNTVYLQINCLKPVDSAVYYCNSDVNVGLEVLIVYEYDYWGQGTQVTVSS", "polyreactivity (PSR sort gate)": "low polyreactivity"}
{"sequence": "QVQLVESGGGLGQAGASLRLSCAASGLTFRYYALGWYRQAPGKLMELVAAISSRGASTYYADSVKGRITISRDNAKNTVYLQMTSLKPEDTAVYYCAARYTGKYEREYNYWGQGTQVTVSS", "polyreactivity (PSR sort gate)": "high polyreactivity"}
{"sequence": "QVQLVESGGGLGQAGASLRLSSAATGFTFRPNAMGWYRQAPGKERELVAAISWRGTRTSYADSVKGRFTISRDNAKNTVYLQMNSLKPEDTAVYSCAARLVRRYDYDYWGQGTQVTVSS", "polyreactivity (PSR sort gate)": "high polyreactivity"}
{"sequence": "QVQLVESGGGLGQAGGRLRLSCAASGSIFRRNAMGWYRQAPGKERELVAGISGGGSTYYADSVKGRFTISRDNAKNTVYLQMYSLKPEDTAVYYCATDKHYRWAGFDYWGQGTQVTVSS", "polyreactivity (PSR sort gate)": "low polyreactivity"}
{"sequence": "QVQLVESGGGLGQAGGSLRLICAASGRTFLYNAMGWYRQAPGNERELVASITSGGSTNYADSVKGRFTISRDNAKNTVNLQMNSVKPEDTAVYYCAADERRPYWQHSIGSGRPFDYWGQGTQVTVSS", "polyreactivity (PSR sort gate)": "low polyreactivity"}
{"sequence": "QVQLVESGGGLGQAGGSLRLSCAASGFTFRTNAMGWYRQAPGKEREFVAAISWSGGRTYYADSVKGRFTISRDNAKNTVYLQMNSLKPEDTAVYYCNADPFHWYYTNMYYWGQGTQVTVSS", "polyreactivity (PSR sort gate)": "high polyreactivity"}
{"sequence": "QVQLVESGGGLGQAGGSLRLSCAASGFTFTYNDMGWYRQAPGKEREFVAAISSTGGSTYYADSVKGRFTISRDNAKNTVYLQMNSLKPEDTAVYYCAAEDSWYWDAWFDYWGQGTQVTVSS", "polyreactivity (PSR sort gate)": "low polyreactivity"}
{"sequence": "QVQLVESGGGLGQAGGSLRLSCAASGFTFWYYGRGWYRQAPGKERELVAAITSSGGRTSYADSVKGRFTISRDNAKNTVYLQMNSLKPEETADYYCAALYSYYSLYDDYDYWGQGTQVTVSS", "polyreactivity (PSR sort gate)": "high polyreactivity"}
{"sequence": "QVQLVESGGGLGQAGGSLRLSCAASGFTFYYNAMGWYRQAPGKERELVATIRGTGSTNYADSVKGRFTISRDNAKNTVYLQMNSLKTEDTAVYYCDAPVDYQGDYWGQGTQVTVSS", "polyreactivity (PSR sort gate)": "low polyreactivity"}
{"sequence": "QVQLVESGGGLGQAGGSLRLSCAASGIIFVENAMGWNRQAPGKERELVATITSGDTTNYADSVKGRFTISRDNAKNTVYLQMNSLKPEDTAVYYCKKVVPDDAYIFAYDYWGQGTQVTVSS", "polyreactivity (PSR sort gate)": "low polyreactivity"}
{"sequence": "QVQLVESGGGLGQAGGSLRLSCAASGITFSGNAMRWYRQAPGKEREYVAAITWRGENTYYADSVKGRFTISRDTAKNTVSLQMNSLKPVDTAVYYCAAISPLVGLTSYRGPDDSWGQGTQVTVSS", "polyreactivity (PSR sort gate)": "low polyreactivity"}
{"sequence": "QVQLVESGGGLGQAGGSLRLSCAASGITFYPNGMGWYRPAPGKEREFVAAITSSGGSTYYADSVKGRFTISRDNAKNTVYLQMNSLKPEDTAVYYCAAQYYPISYYGYGYWGQGTQVTVSS", "polyreactivity (PSR sort gate)": "low polyreactivity"}
{"sequence": "QVQLVESGGGLGQAGGSLRLSCAASGLIFNIYARGWYSQAPGKDRELVATIRYSGGSTNYADSVKGRVTISRDNAKNTVNLQMKSLNPEDTAVYYCNAGYYPTGYDYWGQGTQVTVSS", "polyreactivity (PSR sort gate)": "low polyreactivity"}
{"sequence": "QVQLVESGGGLGQAGGSLRLSCAASGLIFVRNDMGWYRQAPGKERELVADISDGSTYADSVKGRFTISRDNAKNTVYLQMNSLKPEDTAVYYCNKDNHDVELPVEFEYWGQGTHVTVSS", "polyreactivity (PSR sort gate)": "high polyreactivity"}
{"sequence": "QVQLVESGGGLGQAGGSLRLSCAASGRIFYRYVMGWYRPAPGKERELVAAITTSGGRTYYADSVKGRFTISRDNAKNTVYLQLNSLKPEDTAVYDCAAASPTPVYWSGRDYYYWGQGTQVTVSS", "polyreactivity (PSR sort gate)": "high polyreactivity"}
{"sequence": "QVQLVESGGGLGQAGGSLRLSCAASGRTFYYYTMGWYRPAPGKERELVAAITHGGSTYYADSVKGRFTISRDNAQNTVYLQMNSLKPEDTAVYSCTAVYHYPYEYWGQGTQVTVSS", "polyreactivity (PSR sort gate)": "high polyreactivity"}
{"sequence": "QVQLVESGGGLGQAGGSLRLSCAASGSIFDWYAMGWYRKAPGKEGELVAAISSGDSTYYADSVKGRFTISRDNAKNTFYLQMNSLKPEDTAVYYCAAVTKLSGIRYNYWGQGTQVTVSS", "polyreactivity (PSR sort gate)": "low polyreactivity"}
{"sequence": "QVQLVESGGGLGQAGGSLRLSCAASGSIFITYAMGWYRQAPGKERELVAAIRRGGRTNYADSVKGRFTISRDNAKNTVYLQMNSLKPEDTAVYYCAAEFRTGWPYYPDYAYDYWGQGSQVTVSS", "polyreactivity (PSR sort gate)": "low polyreactivity"}
{"sequence": "QVQLVESGGGLGQAGGSLRLSCAASGSIFPDYVMGWYRQAPGKARELVAAISRGGSTYYADSVKGRFTISRDNAKNTVYLQMNSLKPEDTAVYYCAADNPHWRYEYWGPGTQVTVSS", "polyreactivity (PSR sort gate)": "high polyreactivity"}
{"sequence": "QVQLVESGGGLHQAGGSLRLSCAASGSTYASNARGWYRQAPGKETELVAAITSRDASTYYADSVKGRFTISRDYAKNTVYLQMNRLKPEDTAVYYCATDGYSPAAFDYWGQGTQVTVSS", "polyreactivity (PSR sort gate)": "low polyreactivity"}
{"sequence": "QVQLVESGGGLIQAGGSLRLSCAASGSTFANNAMGWYRPAPGKERELVAAISYNGGSTYYADSVKGRFTISRDNAKNTVYLQMNSLKPEDTAVYYCAAYHFRAPSEYDYWGQGTQVTVSS", "polyreactivity (PSR sort gate)": "low polyreactivity"}
{"sequence": "QVQLVESGGGLIQAGGSLRLSCATSGSIFDDYAMGWYRQAPGKERELVAAISSSGTSTYYADSVKGRFTISRDNAKNTVYLQMKSLKPEDTAVYYCAARSAILKSGYLMDYWGQGTQVTVSS", "polyreactivity (PSR sort gate)": "low polyreactivity"}
{"sequence": "QVQLVESGGGLLKAGGSLRLSCAASGIIFDSYAMGWYIQAPGKERELVAAITSDSGRTYYADSVKGRFTISRDYAKNTFYLQMNSLKPEDTAVYYCAKRWEGPYDYWGQGSQVTVSS", "polyreactivity (PSR sort gate)": "low polyreactivity"}
{"sequence": "QVQLVESGGGLLKAGGSLRLSCAASGSTFSVYAMGWYRQAPGKEREFVARITWNGGRTYYADSVKGRFTISRDNAKNTVYLQMNSLKPEDTAVYYCAARGPTVTGTGGDYWGQGTQVTVSS", "polyreactivity (PSR sort gate)": "high polyreactivity"}
{"sequence": "QVQLVESGGGLLKEGGSLRLICAASGRIFVGYDMGWYRQEPGKERELVAAISSDGGSTYYSDSVKGRFTISRDNAKNTVYLQMNSVKPEDTAFYYCAADDFSTVEYDYWGQGTQVNVSS", "polyreactivity (PSR sort gate)": "low polyreactivity"}
{"sequence": "QVQLVESGGGLLQAGASLRLSCAASGRTIYRYAMGRYRQAPGKERELVAAITRRGVNTYYADSVKGRFTISRDNAKNTVYLQMYSLKPVDTAVFYCNAAYSSRYDYCGQGTQVTVSS", "polyreactivity (PSR sort gate)": "high polyreactivity"}
{"sequence": "QVQLVESGGGLLQAGCSLRISCAASGFIFYKYVMGWYRPAPGKERELVAAINWSGGSTYYADSVKGRFTISRDNAKNTVYLQMNSLKQEDTAVYYCNAARRSKGGLNDYYWGQGTQVTVSS", "polyreactivity (PSR sort gate)": "high polyreactivity"}
